Results published in article PMC4370635, “ARF6 Promotes the Formation of Rac1 and WAVE-Dependent Ventral F-Actin Rosettes in Breast Cancer Cells in Response to Epidermal Growth Factor” (PLoS ONE, 2015).

Target: T1, GST fused with the ARF6-binding domain (LZII, leucine zipper II domain) of human JIP3 (aa 371-507) (human, UniProt Q9UPT6 371-507)
T1 construct: JIP3, human, residues 371-507 (LZII, leucine zipper II domain); also called GST-LZII; LZII domain of human JIP3; source: pGEX construct, purified as described [35]; not shown: GST, N-terminal, kept
T1 sequence (looked up): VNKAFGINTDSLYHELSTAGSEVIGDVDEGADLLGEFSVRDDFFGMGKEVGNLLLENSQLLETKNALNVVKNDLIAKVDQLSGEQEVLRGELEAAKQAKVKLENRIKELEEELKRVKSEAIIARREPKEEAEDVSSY
Test: pull-down; GST-LZII (37 ug/reaction) incubated with cleared MDA-MB-231 cell lysates for 15 min at 4°C with 0.5% BSA, then glutathione-Sepharose beads for 1 h at 4°C; lysis buffer 50 mM Tris pH 7.4, 137 mM NaCl, 10 mM MgCl2, 10% glycerol, 1% Triton-X100; bound proteins immunoblotted with anti-ARF6 monoclonal antibody
Settings: one partner purified

- fold increase in GTP-ARF6 pulled down, against parental MDA-MB-231 cells: ~4 fold
B1: ARF6T157N (natural protein, UniProt P62330 1-175, looked up)
chain: MGKVLSKIFGNKEMRILMLGLDAAGKTTILYKLKLGQSVTTIPTVGFNVETVTYKNVKFNVWDVGGQDKIRPLWRHYYTGTQGLIFVVDCADRDRIDEARQELHRIINDREMRDAIILIFANKQDLPDAMKPHEIQEKLGLTRIRDRNWYVQPSCANSGDGLYEGLTWLTSNYKS
notes: ADP-ribosylation factor 6 (ARF6), fast-cycling mutant T157N; also called fast-cycling mutant of ARF6; ARF6T15TN
